Consider 4 molecules from US20230055694A1 (INSTIL BIO UK, published 2023).

A value given as a limit tells only on which side of the number the result lay.

The target in one test is T1, rhCEACAM5-Fc (human, UniProt P06731 35-685).
T1 construct: Bought staining reagent; construct limits and Fc not described; also called primary rhCEACAM5-Fc antibody; CEA.hFc protein; not shown: Fc tag detected with anti-IgG-Fc-PE
T1 sequence (looked up): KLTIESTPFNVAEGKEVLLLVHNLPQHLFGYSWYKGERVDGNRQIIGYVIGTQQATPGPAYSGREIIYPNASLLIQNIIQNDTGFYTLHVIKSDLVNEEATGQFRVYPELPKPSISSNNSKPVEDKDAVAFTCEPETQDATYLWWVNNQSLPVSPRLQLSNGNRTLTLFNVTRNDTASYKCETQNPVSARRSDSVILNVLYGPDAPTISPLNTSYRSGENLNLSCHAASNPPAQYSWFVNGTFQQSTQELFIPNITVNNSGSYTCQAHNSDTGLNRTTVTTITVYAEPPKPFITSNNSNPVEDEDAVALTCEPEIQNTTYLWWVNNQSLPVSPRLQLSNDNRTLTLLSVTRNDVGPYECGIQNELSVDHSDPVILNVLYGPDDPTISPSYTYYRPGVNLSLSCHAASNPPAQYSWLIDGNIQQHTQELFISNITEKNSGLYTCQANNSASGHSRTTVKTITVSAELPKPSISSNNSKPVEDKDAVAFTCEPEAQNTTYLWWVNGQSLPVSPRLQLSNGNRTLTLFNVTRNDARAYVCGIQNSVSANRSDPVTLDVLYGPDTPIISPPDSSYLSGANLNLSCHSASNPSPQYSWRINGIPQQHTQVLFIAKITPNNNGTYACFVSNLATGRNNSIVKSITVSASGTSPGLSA
Put plainly: flow cytometry of transduced T cells: CoStAR detected with primary rhCEACAM5-Fc and secondary anti-IgG-Fc-PE (FIG. 26). In general terms: A flow cytometer gives signals particle by particle.

Test [1] concerns the target Human folate receptor alpha (FolR) on cells (human) (UniProt P15328). Put plainly: cell-based or functional assay.

Sequence of Human folate receptor alpha (FolR) on cells (human) (P15328 25-234): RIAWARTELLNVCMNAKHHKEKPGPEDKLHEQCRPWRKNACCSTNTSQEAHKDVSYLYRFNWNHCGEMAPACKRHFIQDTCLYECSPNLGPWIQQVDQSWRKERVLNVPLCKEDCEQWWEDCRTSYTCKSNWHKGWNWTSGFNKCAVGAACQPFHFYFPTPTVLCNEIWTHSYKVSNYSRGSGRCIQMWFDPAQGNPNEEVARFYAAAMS

B1: anti-CEA CoStAR CTP232 (OSM1 signal peptide, hMFE23 scFv, AAAGSGGSG linker, CD8 EC spacer, CD8 TM, CD28.CD40) (receptor)
chain: QVKLEQSGAEVVKPGASVKLSCKASGFNIKDSYMHWLRQGPGQRLEWIGWIDPENGDTEYAPKFQGKATFTTDTSANTAYLGLSSLRPEDTAVYYCNEGTPTGPYYFDYWGQGTLVTVSSGGGGSGGGGSGGGGSENVLTQSPSSMSASVGDRVNIACSASSSVSYMHWFQQKPGKSPKLWIYSTSNLASGVPSRFSGSGSGTDYSLTISSMQPEDAATYYCQQRSSYPLTFGGGTKLEIKAAAGSGGSGFVPVFLPAKPTTTPAPRPPTPAPTIASQPLSLRPEACRPAAGGAVHTRGLDFACDIYIWAPLAGTCGVLLLSLVITLYCNHRNRSKRSRLLHSDYMNMTPRRPGPTRKHYQPYAPPRDFAAYRSKKVAKKPTNKAPHPKQEPQEINFPDDLPGSNTAAPVQETLHGCQPVTQEDGKESRISVQERQ
notes: On transduced human T cells
Turning to B1, the binding result with rhCEACAM5-Fc was “binds”.

B2: MOV19.CD28.CD40 CoStAR (receptor, part only; not given: tag, linker, CD28 and CD40 parts, part only)
chain, part: QVQLQQSGAELVKPGASVKISCKASGYSFTGYFMNWVKQSHGKSLEWIGRIHPYDGDTFYNQNFKDKATLTVDKSSNTAHMELLSLTSEDFAVYYCTRYDGSRAMDYWGQGTTVTVSSGGGGSGGGGSGGGGSDIELTQSPASLAVSLGQRAIISCKASQSVSFAGTSLMHWYHQKPGQQPKLLIYRASNLEAGVPTRFSGSGSKTDFTLNIHPVEEEDAATYYCQQSREYPYTFGGGTKLEIK
In test [1], B2 yielded a CD137 expression of 50%, a CD137 expression of CoStAR+ TIL after coculture with FolR high expressing tumour digest of 50%, a CD137 expression of CoStAR+ TIL after coculture with FolR low expressing tumour digest of over 20% and an IL-2 production of 5%. Also, in test [1], the TNFα production was determined as 15%, the enhancement of Bcl-XL induction in the presence of OvCAR-OKT3 is 35% and the mean fold expansion of transduced T cells over 21 days with OvCAR-OKT3 (CA125+/Folate receptor+/CEA-) amounted to 1300 fold.

B3: MOV19.CD28 CoStAR (receptor, part only; not given: tag, linker and CD28 part, part only)
chain, part: B2 chain, part
As for B3, in test [1], the enhancement of Bcl-XL induction in the presence of OvCAR-OKT3 stood at 20%, the enhancement of IL-2 induction in the presence of OvCAR-OKT3 was found to be 20% and the mean fold expansion of transduced T cells over 21 days with OvCAR-OKT3 (CA125+/Folate receptor+/CEA-) worked out at 187 fold.

B4: anti-CEA CoStAR CTP244 (OSM1 signal peptide, hMFE23 scFv, AAAGSGGSG linker, CD28 (trunc IIH) spacer, CD28 TM, CD28.CD40) (receptor)
chain: QVKLEQSGAEVVKPGASVKLSCKASGFNIKDSYMHWLRQGPGQRLEWIGWIDPENGDTEYAPKFQGKATFTTDTSANTAYLGLSSLRPEDTAVYYCNEGTPTGPYYFDYWGQGTLVTVSSGGGGSGGGGSGGGGSENVLTQSPSSMSASVGDRVNIACSASSSVSYMHWFQQKPGKSPKLWIYSTSNLASGVPSRFSGSGSGTDYSLTISSMQPEDAATYYCQQRSSYPLTFGGGTKLEIKAAAGSGGSGIIHVKGKHLCPSPLFPGPSKPFWVLVVVGGVLACYSLLVTVAFIIFWVRSKRSRLLHSDYMNMTPRRPGPTRKHYQPYAPPRDFAAYRSKKVAKKPTNKAPHPKQEPQEINFPDDLPGSNTAAPVQETLHGCQPVTQEDGKESRISVQERQ
notes: On transduced human T cells
B4: the binding result with rhCEACAM5-Fc was “binds”.
